# Reference: the nanobody polyreactivity screen of Harvey et al. (2022)
# Assay: yeast display, Sf9 membrane polyspecificity reagent, FACS + sequencing; frameworks hold sequencing errors
# Method in brief: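 In a synthetic yeast display library (Saccharomyces cerevisiae BJ5465), nanobody expression was induced with galactose for 36–48 hours. FACS gates were set low and high (top ~1%) using anti-HA fluorescence for expression and streptavidin fluorescence for binding of the Sf9 membrane reagent. Each polyreactivity label is drawn from the gate of origin.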
row,Sequence,polyreactivity (PSR sort gate)
1,QVQLVESGGGLVQAGGSLRLSCAASGSIFEPNAMGWYRQAPGKERELVAAISSGGSTYYADSVKGRFTISRDNAKNTVYLQMNSLKPEDTAVYYCAAYYHGYYSWGQGTQVTVSS,high polyreactivity
2,QVQLVESGGGLVQAGGSLRLSCAASGSIFEPYTMGWYRQAPGKERELVAAITGSGGSTFYADSVKGRFTISRDNAKNTVYLQMNSLKPEDTAVYYCNAFAYPYTDVDYWGQGTQVTVSS,low polyreactivity
3,QVQLVESGGGLVQAGGSLRLSCAASGSIFEPYVMGWYRQAPGKERELVAAIRQTGGSTYYADSVKGRFTISRDNAKNTVYLQMNSLKPEDTAVYYCAAVYLYYSRSDLYDYWGQGTQVTVSS,low polyreactivity
4,QVQLVESGGGLVQAGGSLRLSCAASGSIFERYAMGWYRQAPGKERELVATISKSGDSTYYADSVKGRFTISRDNAKNTVYLQMNSQKPEDTAVYYCAADGWSETSDATFYYWGQGTQVTVSS,low polyreactivity
5,QVQLVESGGGLVQAGGSLRLSCAASGSIFESNDMGWYRQAPGKERELVAAYADSVKGRFTISRDNAKNTVYLQMNSLKPEDTAVYYCAKSLSLYVVPLYEYWGQGTQVTVSS,low polyreactivity
6,QVQLVESGGGLVQAGGSLRLSCAASGSIFESYAMGWYRQAPGKERELVADITYDGGITYYADSVKGRFTISRDNAKNTVYLQMNSLKPEDTADYYCNADSVQYTPPESDYWGQGTQVTVSS,low polyreactivity
7,QVQLVESGGGLVQAGGSLRLSCAASGSIFESYAMGWYRQAPGKERELVADITYDGGITYYADSVKGRFTISRDNAKNTVYLQMNSLKPEDTAVYYCATEYRYWQSDYSTYFPYDYWGQGTQVTVSS,low polyreactivity
8,QVQLVESGGGLVQAGGSLRLSCAASGSIFETYDMGWYRQAPGKERELVAAITLSGGSTYYADSVKGRFTISRDNAKNTVYLQMNSLKPEDTAVYYCAADDSGVKVWEGDYWGQGTQVTVSS,low polyreactivity
9,QVQLVESGGGLVQAGGSLRLSCAASGSIFETYVMGWYRQAPGKERELVAAINSGGSTNYADSVKGRFTISRDNAKNTVYLQMNSLKPEDTAVYYCAAEWRGDRYRLYVVSWWYDYWGQGTQVTVSS,low polyreactivity
10,QVQLVESGGGLVQAGGSLRLSCAASGSIFEVNAMGWYRQAPGKERELVAAISCSGGSTYYADSVKGRFTISRDNAKNTVYLQMNSLKPEDTAVYYCAADWRQGLWYGYYYWGQGTQVTVSS,low polyreactivity
11,QVQLVESGGGLVQAGGSLRLSCAASGSIFEWYAMGWYRQAPGKERELVADITNNGGSTYYADSVKGRFTISRDNAKNTVYLQMNSLKPEDTAVYYCAADYFDQVPDYYYASEYGYWGQGTQVTVSS,low polyreactivity
12,QVQLVESGGGLVQAGGSLRLSCAASGSIFEYNTMGWYRQAPGKERELVATISWSGDSTYYADSVKGRFTISRDNAKNTVYLQMNSLKPEDTAVYYCAAQRGAPVDGKSDYWGQGTQVIVSS,low polyreactivity
13,QVQLVESGGGLVQAGGSLRLSCAASGSIFEYYAMGWYRQAPGKERELVAAISSGGPTYYADSVKGRFTISRDNAKNTVYLQMNSLKPEDTAVYYCNADLWYPDYDYWGQGTQLTVSS,low polyreactivity
14,QVQLVESGGGLVQAGGSLRLSCAASGSIFEYYTMGWYIPAPGKERECVAAITFTGDSTYYADSVKGRFTISRDNAKNTVFLQMNSLKPEDTAVYYCNADSVTYDGEYDYWGQGTQVTVSS,low polyreactivity
15,QVQLVESGGGLVQAGGSLRLSCAASGSIFFARYAMGWYRQAPGKERELVAAITRATSTTYADSVKGRFTISRDNAKNTVYLQMNSLKPEDTAVYYCAATKIGGGSFRPYYYWGQGTQVTVSS,high polyreactivity
16,QVQLVESGGGLVQAGGSLRLSCAASGSIFFDGNAMGWYRQAPGKERELVAAISVSGGSTYYADSVKGRFTISRDYAKTTVYLQINRLKPEDTAVYDCAKYPSKSYVPGDYWGQGTQVTVSS,low polyreactivity
17,QVQLVESGGGLVQAGGSLRLSCAASGSIFFFNAMGWSRQAPGKERELVATISDTTDTDYADSVKGRFTISRENGKNTVYLQMNSLKPEDTAVYYCAKVKAWTEYYYWGQGTQVTVSS,low polyreactivity
18,QVQLVESGGGLVQAGGSLRLSCAASGSIFFFYVMGWYRPAPGKERELVAAITYSGGSTFYADSVKGRFTISRDNAKNTVYLQMNSLKPEDTAVYYCAADYGQWTPLDPYNHWGQGTQVTVSS,low polyreactivity
19,QVQLVESGGGLVQAGGSLRLSCAASGSIFFFYVMGWYRQAPGKERELVAAINNGGSTNYADSVKGRFTISRDNAKNTVYLQMNSLKPEDTAVYYCAADSITSKNQGLDYDYWGQGTQVTVSS,low polyreactivity
20,QVQLVESGGGLVQAGGSLRLSCAASGSIFFGYAMGWYRPAPGKERELVAAISSDGSTYYADSVKGRFTISRDNAKNTVYLQMNSLKPEDTAVYYCNAEQAIFYWYATVTYDYWGQGTQVTVSS,low polyreactivity
21,QVQLVESGGGLVQAGGSLRLSCAASGSIFFIYAMGWYRQAPGTERELVATITSGGSTYYADSVKGRFTISRDNAKNTVYLQMNSLKPEDTAVYYCAVDEYYAFDYWGQGTQVTVSS,low polyreactivity
22,QVQLVESGGGLVQAGGSLRLSCAASGSIFFKYAMGWYRQAPGKERELVASITRGGRTYYADSVKGRFTISRDNAKNTVYLQMNSLKPEDTAVYYCNKRTVWKHDYWGQGTQVTVSS,high polyreactivity

row,Sequence,polyreactivity (PSR sort gate)
1,QVQLVESGGGLVQAGGSLRLSCAASGSIFFLYAMGWSRQAPGKEWELVAAISRTGSTYADSVKGRFTISRDNAKNTVYLQMNSLKPEDTAVYYCADEYRYYWYGTMNYWGQGTQVTVSS,low polyreactivity
2,QVQLVESGGGLVQAGGSLRLSCAASGSIFFLYAMGWYRQAPGKEREFVAAITGTADSTYYADSVKGRFTISRDDAKNTVYLQMNSLKPEDTAVYYCATDYWSSVKLDDYWGQGTQVTVSS,low polyreactivity
3,QVQLVESGGGLVQAGGSLRLSCAASGSIFFRYAMGWYRQAPGKERELVAGITYSSGSSTYADSVKGRFTISRHNAKNTVYLQMNSLKPEDTAVYYCAAAYRFPGNRYDYWGQGTQVTVSS,low polyreactivity
4,QVQLVESGGGLVQAGGSLRLSCAASGSIFFRYTMGWYRQAPGKERELVAAITGSGGSTYYADSVKGRFTISRDNAKNTVYLQMNSLKPEDTAVYYCARPGWGRYEYWGQGTQVTVSS,high polyreactivity
5,QVQLVESGGGLVQAGGSLRLSCAASGSIFFSNAMGGYRQAPGKERELVAAITSTGGSTYYADSVKGRFTISRDNAKNTGYLQMNSLKPEDTAVYYCAAASRRGYYYWGQGTQVTVSS,high polyreactivity
6,QVQLVESGGGLVQAGGSLRLSCAASGSIFFSSAMGWSRQEPGKERELVAAISSGASTYYADSVKGRFTISRDNAKNTVYLQMNSLKPEDTAVYYCAARGYRLVPVDFYYWGQGTQVTVSS,low polyreactivity
7,QVQLVESGGGLVQAGGSLRLSCAASGSIFFSYAMGWYRPAPGKERELVAGINWSGGSTYADSVKGRFTLSRDNAKNTVYLQINSLKPEDTAVYYCAAKYYSERSRYHYWGQGTQVTVSS,low polyreactivity
8,QVQLVESGGGLVQAGGSLRLSCAASGSIFFTYAMGWYRQAPGKERELVAGISWGGGSTHYADSVKGRFTISRDNAKNTVYLQMNSLKPEDTAVYYCARVWPYPSTEYGYTGRLYDYWGQGTQVTVSS,low polyreactivity
9,QVQLVESGGGLVQAGGSLRLSCAASGSIFFYNVMGWYRQAPGKERELVASISWRGASTYYADSVKGRFTISRDNAKNTVYLQMNSLKPEDTAVYYCAARFGSATRYQTGYYWGQGTQVTVSS,high polyreactivity
10,QVQLVESGGGLVQAGGSLRLSCAASGSIFGANAMGWYRQAPGKERELVAAISSGDSTYADSVKGRFTISRDNAKNTVYLQMNSLKPEDTAVYYCATCRYGGQGYPFYYWGQGTQVTVSS,low polyreactivity
11,QVQLVESGGGLVQAGGSLRLSCAASGSIFGANTMGWYRQAPGKERELVAGITSGARTYYADSVKGRFTISRDNAKNTVYLQMNSLKPEDTAVYYCAADTWKVFGVDYWGQGTQVTVSS,high polyreactivity
12,QVQLVESGGGLVQAGGSLRLSCAASGSIFGAYAMGSYRQAPGKERELVASISDGGGTYYADSVKGRFTISRDNAKNTVYLQMNSLKPEDTAVYYCAADPPKRVPGGYWGQGTQVTVSS,low polyreactivity
13,QVQLVESGGGLVQAGGSLRLSCAASGSIFGAYDMGWSRQAPGKERELVASITSGDSTNYADSVTGRFTISRDNAKNTVYLQMNSLKPEDTAVYYCAADLAVAVAADYDSWGQGTQVTVSS,low polyreactivity
14,QVQLVESGGGLVQAGGSLRLSCAASGSIFGAYGMGWYRQAPGKEREFVAAITGRGSTTYYADSVKGRFTISRDNAKNTVYLQMTSLKPEDTAVYYCNTRYRGLYHYPMGSWGQGTQVTVSS,high polyreactivity
15,QVQLVESGGGLVQAGGSLRLSCAASGSIFGAYTMGWYRQAPGKERELVAAISIGGSTNYADSVKGRFTISRDNAKNTVYLQMNSLKPEDTAVYYCAAYRQANRYGGEDYWGLGTQVTVSS,high polyreactivity
16,QVQLVESGGGLVQAGGSLRLSCAASGSIFGAYTMGWYRQAPGKERELVAAITGGGITNYADSVKGRFTISRDNAKNTVYLQMNSLKPEDTAVYYCNAGYPPQTVVVGYDYWGQGTQVTVSS,low polyreactivity
17,QVQLVESGGGLVQAGGSLRLSCAASGSIFGDNVMGWYRPAPGKERELVAAISRSGGSTYYADSVKGRFTISRDNAKNTVYVEMNSLIPEDSSVYYCAARYWSWRSFKVDYWGQGTQVTVSS,high polyreactivity
18,QVQLVESGGGLVQAGGSLRLSCAASGSIFGEYAMGWYRQAPGKERELVAGITSDGSTNYADSVKGRFTISRDNAKNTVYLQMNSLKQEDTAVYYCAAAGYVYHWAPRGSRYYYWGQGTQVTVSS,low polyreactivity
19,QVQLVESGGGLVQAGGSLRLSCAASGSIFGFNALGWYRQAPGKERELVAAINNGGSTNYADSVKGRFTISRDNATNTVYLQMNSLKPEDTAVYYCAARLNYIRRGYWGQGTQVTVSS,high polyreactivity
20,QVQLVESGGGLVQAGGSLRLSCAASGSIFGFNAMGWYRQAPGKERELVAAINNGGSTNYADSVKGRFTISRDNAKNTVYLQMNSLKPEDTAVYYCAARLNYIRRGYWGQGTQVTVSS,high polyreactivity
21,QVQLVESGGGLVQAGGSLRLSCAASGSIFGFNAMGWYRQAPGKERELVAAISGRGTGTYYADSVKGRFTISRDNAKNTVYLQMNSLKPEDTAVYYCYTYYYWGQGTQVTVSS,high polyreactivity
